Results: patent US20110300138A1 (published 2011)
Blank lines part the entries; values can stand above or below the molecule they belong to.

Tests used:
[1] = biological target: TSH receptor (full length human TSHR) coated on tubes (human) (UniProt P16473); test: 125I-TSH binding inhibition, TSHR coated tubes; 40 units/L in assay buffer
[2] = biological target: TSH receptor (full length human TSHR) coated on tubes (human) (UniProt P16473); test: 125I-TSH binding inhibition, TSHR coated tubes; 4 units/L in assay buffer
[3] = biological target: TSH receptor (full length human TSHR) coated on tubes (human) (UniProt P16473); test: 125I-TSH binding inhibition, TSHR coated tubes; 1 unit/L in assay buffer
[4] = biological target: TSH receptor (full length human TSHR) coated on tubes (human) (UniProt P16473); test: 125I-TSH binding inhibition, TSHR coated tubes; 0.125 units/L in assay buffer
[5] = biological target: TSH receptor (full length human TSHR) coated on tubes (human) (UniProt P16473); test: 125I-TSH binding inhibition, TSHR coated tubes; 8 units/L in serum
[6] = biological target: TSH receptor (full length human TSHR) coated on tubes (human) (UniProt P16473); test: 125I-TSH binding inhibition, TSHR coated tubes; 0.125 units/L in serum
[7] = biological target: TSH receptor (full length human TSHR) coated on tubes (human) (UniProt P16473); test: 125I-TSH binding inhibition, TSHR coated tubes; 8 units/L in assay buffer
[8] = biological target: TSH receptor (full length human TSHR) coated on tubes (human) (UniProt P16473); test: 125I-TSH binding inhibition, TSHR coated tubes; 4 units/L in serum
[9] = biological target: TSH receptor (full length human TSHR) coated on tubes (human) (UniProt P16473); test: 125I-TSH binding inhibition, TSHR coated tubes; 2 units/L in serum
[10] = biological target: TSH receptor (full length human TSHR) coated on tubes (human) (UniProt P16473); test: 125I-TSH binding inhibition, TSHR coated tubes; 0.25 units/L in serum
[11] = biological target: TSH receptor (full length human TSHR) coated on tubes (human) (UniProt P16473); test: 125I-TSH binding inhibition, TSHR coated tubes; 1 unit/L in serum
[12] = biological target: TSH receptor (full length human TSHR) coated on tubes (human) (UniProt P16473); test: 125I-TSH binding inhibition, TSHR coated tubes; 40 units/L in serum
[13] = biological target: TSH receptor (full length human TSHR) coated on tubes (human) (UniProt P16473); test: 125I-TSH binding inhibition, TSHR coated tubes; 0.5 units/L in assay buffer
[14] = biological target: TSH receptor (full length human TSHR) coated on tubes (human) (UniProt P16473); test: 125I-TSH binding inhibition, TSHR coated tubes; 2 units/L in assay buffer
[15] = biological target: TSH receptor (full length human TSHR) coated on tubes (human) (UniProt P16473); test: 125I-TSH binding inhibition, TSHR coated tubes; 0.5 units/L in serum
[16] = biological target: TSH receptor (full length human TSHR) coated on tubes (human) (UniProt P16473); test: 125I-TSH binding inhibition, TSHR coated tubes; 0.25 units/L in assay buffer
[17] = biological target: T1, TSHR260 (human, UniProt P16473 22-260); test: ELISA on 14C4 F(ab')2 captured preparation; TSHR260 kept 24 hours at room temperature
T1 construct: Expressed in insect cells; coated on tubes or wells by way of a mouse TSHR MAb (14C4 F(ab')2 in the stability ELISA); also called TSHR fragment of amino acids 22-260

[18] = biological target: TSHR260-alkaline phosphatase (human); test: ELISA on 14C4 F(ab')2 captured preparation; untreated TSHR260-AP
[19] = biological target: T1, TSHR260; test: ELISA on 14C4 F(ab')2 captured preparation; untreated TSHR260
[20] = biological target: TSHR LRD C-CAP (human) (UniProt P16473); test: ELISA on 14C4 F(ab')2 captured preparation; TSHR LRD C-CAP kept 24 hours at room temperature
[21] = biological target: TSHR LRD C-CAP (human) (UniProt P16473); test: ELISA on 14C4 F(ab')2 captured preparation; untreated TSHR LRD C-CAP
[22] = biological target: T1, TSHR260; test: ELISA on 14C4 F(ab')2 captured preparation; TSHR260 kept 48 hours at room temperature
[23] = biological target: TSHR260-alkaline phosphatase (human); test: ELISA on 14C4 F(ab')2 captured preparation; TSHR260-AP kept 24 hours at room temperature
[24] = biological target: TSHR LRD C-CAP (human) (UniProt P16473); test: ELISA on 14C4 F(ab')2 captured preparation; TSHR LRD C-CAP kept 48 hours at room temperature
[25] = biological target: TSHR260-alkaline phosphatase (human); test: ELISA on 14C4 F(ab')2 captured preparation; TSHR260-AP kept 48 hours at room temperature
[26] = biological target: full length human TSHR, detergent-solubilised, coated on tubes or ELISA plate wells (human) (UniProt P16473); test: ELISA: TSHR preparation captured on 14C4 F(ab')2 coated wells, M22 Fab-peroxidase binding; preparation stored at -80 C (untreated)
[27] = biological target: full length human TSHR, detergent-solubilised, coated on tubes or ELISA plate wells (human) (UniProt P16473); test: ELISA on 14C4 F(ab')2 captured preparation; preparation kept 48 hours at room temperature
[28] = biological target: full length human TSHR, detergent-solubilised, coated on tubes or ELISA plate wells (human) (UniProt P16473); test: ELISA on 14C4 F(ab')2 captured preparation; preparation kept 24 hours at room temperature
[29] = biological target: TSH receptor (full length human TSHR) coated on tubes (human) (UniProt P16473); test: 125I-TSH binding to TSHR coated tubes, in HBD pool
[30] = biological target: TSH receptor (full length human TSHR) coated on tubes (human) (UniProt P16473); test: 125I-TSH binding to TSHR coated tubes, in assay buffer
[31] = biological target: T2, human TSH receptor, full length, detergent-solubilised, coated on tubes or ELISA plate wells (human, UniProt P16473 22-764); test: TSHR binding affinity (summary table; Scatchard analysis, TSHR coated tubes)
T2 construct: Full length recombinant receptor expressed in CHO cells, solubilised and coated via a C-terminal antibody; also called wild type TSHR; full length TSHR

[32] = biological target: human TSHR on transfected CHO cells (human, UniProt P16473 22-764); test: cell-based or functional assay
[33] = biological target: T1, TSHR260; test: Scatchard analysis, TSHR260 coated tubes (mean±SD, n=3)
[34] = biological target: T3, full length human TSHR, detergent-solubilised, coated on tubes or ELISA plate wells (human, UniProt P16473 22-764); test: inhibition of 125I-TSH binding to TSHR coated tubes, dilutions in HBD sera
T3 construct: Full length receptor expressed in CHO cells, solubilised with detergent and held on the plastic by a mouse MAb to the C-terminus; The leader 1-21 is stated for the TSHR260 construct of the same receptor; also called TSH receptor; TSHR (full length)

[35] = biological target: T3, full length human TSHR, …; test: inhibition of 125I-TSH binding to TSHR coated tubes, dilutions in assay buffer
Experimental: Binding inhibition assays were carried out using TSHR coated tubes as described in WO2004/050708A2. […] After aspiration, the tubes were washed and 100 μL of ¹²⁵I-labelled protein (5×10⁴ cpm) added and incubated for 1 hour at room temperature with shaking. The tubes were then aspirated, washed and counted in a gamma counter. Inhibition of labelled protein binding was calculated as 100×[1−(cpm bound in the presence of test material/cpm bound in the presence of control material)].

[36] = biological target: T3, full length human TSHR, …; test: Scatchard analysis, 125I-labelled antibody on full length TSHR coated tubes (mean±SD, n=3)

Inhibition of binding (%) [1]: 90.9% | Inhibition of binding (%) [2]: 53.3% | Inhibition of binding (%) [3]: 14.1% | Inhibition of binding (%) [4]: 5.1% | Inhibition of binding (%) [5]: 63.2% | Inhibition of binding (%) [6]: 2.4% | Inhibition of binding (%) [7]: 62.2% | Inhibition of binding (%) [8]: 49.2% | Inhibition of binding (%) [9]: 22.9% | Inhibition of binding (%) [10]: 3.5% | Inhibition of binding (%) [11]: 15.5% | Inhibition of binding (%) [12]: 90% | Inhibition of binding (%) [13]: 2.8% | Inhibition of binding (%) [14]: 27.2% | Inhibition of binding (%) [15]: 9.3% | Inhibition of binding (%) [16]: 0.9%
Molecule: Thyroid Stimulating Autoantibody reference preparation NIBSC 90/672

OD450 nm [17]: 1.84 OD450 nm | OD450 nm [18]: 2.4 OD450 nm | OD450 nm [19]: 2.29 OD450 nm | OD450 nm [20]: 1.16 OD450 nm | OD450 nm [21]: 1.83 OD450 nm | OD450 nm [22]: 1.68 OD450 nm | OD450 nm [23]: 2.11 OD450 nm | OD450 nm [24]: 1.16 OD450 nm | OD450 nm [25]: 1.98 OD450 nm | OD450 nm [26]: 1.75 OD450 nm | OD450 nm [27]: 0.126 OD450 nm | OD450 nm [28]: 0.268 OD450 nm
Molecule: M22 Fab-peroxidase conjugate

% binding [29]: 12.9% | % binding [30]: 12.6%
Molecule: 125I-labelled TSH (ligand)

Ka [31]: 3.9e+10 M⁻¹
B1: K1-70 IgG (human monoclonal TSHR autoantibody with blocking activity) (antibody, V domains shown)
VH: EVQLVQSGAEVKKPGQSLKISCKASGYSLTDNWIGWVRQKPGKGLEWMGIIYPGDSDTRYSPSFQGQVTISADKSINTAYLQWSSLKASDTAIYYCVGLDWNYNPLRYWGPGTLVTVSS
VL: QSVLTQPPSVSAAPGQKVTISCSGSSSDIGSNYVSWYQQFPGTAPKLLIYDNNKRPSAIPDRFSGSKSGTSATLGITGLQTGDEADYYCGTWDSRLGIAVFGGGTQLTVLG
notes: IgG1 lambda purified from hetero-hybridoma supernatant

potency of TSHR cyclic AMP stimulation, M22 against K1-18 [32]: ~1.5 fold | Ka [33]: 5.9e+09 M⁻¹ | fold activity in inhibition of TSH binding against K1 donor serum IgG [34]: 6600 times | fold activity in inhibition of TSH binding against K1 donor serum IgG [35]: 4700 times | Ka [36]: 6.7e+09 M⁻¹
B2: K1-18 IgG (antibody, V domains shown)
VH: EVQLVQSGAEVKKPGESLKISCKGSGYSFTNYWIGWVRQMPGKGLEWMGIIYPYDSDTRYSPSFEGQVTISADKSIRTAYLHWSSLKASDTAMYYCVRPRDGSYPYDAFDIWGQGTMVTVSS
VL: EIVLTQSPGTLSLSPGERATLSCRASQSVSNNYLAWYQQKPGQAPRLLIYGASSRATGIPDRFSGSGSGTDFTLTISRLEPEDFAVYYCQHCGSSLRAFGQGTKVEIKR
notes: Human IgG1 kappa purified from hetero-hybridoma supernatant; also called human MAb K1-18
